Earlier results as cited in paper PMC6502704.
Where two headings read alike, the source gives them in different places. Each block holds one substance with its values, some of them ahead of it.

Columns and labels:
BMAL1 TAD (Mus musculus) [1] = target: BMAL1 TAD (Mus musculus) (UniProt Q9WTL8)
BMAL1 TAD (Mus musculus) [2] = target: BMAL1 TAD (Mus musculus) (UniProt Q9WTL8); remark: listed apart in the source
[3] = target: BMAL1 577-625 (Mus musculus) (UniProt Q9WTL8)
[4] = target: BMAL1 577-625 (Mus musculus) (UniProt Q9WTL8); remark: listed apart in the source
[5] = target: BMAL1 490-625 (Mus musculus) (UniProt Q9WTL8)

- Kd (BMAL1 TAD (Mus musculus) [1]): 2 µM
Substance: CBP KIX (from UniProt P45481)

- Kd (BMAL1 TAD (Mus musculus) [2]): 10 µM
Substance: CRY1 (from UniProt P97784)

- Kd [3]: 10 µM
Substance: CRY1 CCT (from UniProt P97784)

- Kd [4]: 10 µM
- Kd [5]: 10 µM
Substance: CRY2 CCT (from UniProt Q9R194)
